Assay: soluble fraction after stress (log2 fold change); higher = more stays soluble; pooled small domains, quantitative proteomics
Conditions: stress: 75 degC
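Also: 20 min heating vs room temperature control held 20 min.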

| Sequence | soluble fraction (log2) |
| --- | --- |
| HMWQKGEPAITGLKRISKPGLRIYSKNDELPIVYGNRGIAVISTNKGVMTGIEAKRSGVGGEVLFYV | -0.112 |
| HMWSAREQVVNSLREAILTSELKAGERLVLSDLSARLGVSVTPIREALQSLEREGLVQLMPHQEAVVV | 0.18 |
| HMWVETITTKAGITKYKFQERYTDTYSGKTKRVSVTYTSNSRQAYKLAQAELQKKIDLATNTD | -0.638 |
| HMYAHLGKNLEVVINKALAQEDPEKKAGFAHHIAYYMKLAYSNWHKELVHDDAIRSELDTITGGELEFSN | 0.609 |
| HMYAHTPEMEAMNELGLEPPVTLDEIKKTYKTLVKKYHPDHNKEDPEAEEKLKKVNMAYTILKVAYTEFEK | -0.246 |
| HMYALGIPVSQYRRTTQVLGHESSYPIAYEDEKQDDDFYLFKFPNIDEYDFKKIVILLKQNGITT | -2.11 |
| HMYDNTVTKYVNSLSVYVRKGPSTSDEIVTSLIKDTDVTVVGENGEWYKIKYKEFEGYIYKNLLSDNKT | -1.91 |
| HMYDRIKLLKLREKRGLTQYELAEKAGISVVTLNKIETSDMAKPFASTLKKIALALGVGIEELS | -2.2 |
| HMYEDGGAFLKAEREKYGLTLTDIYEHTHIPVRKLKAYEMHEEEMPDRTRALLELYFDQVAYEYES | -0.734 |
| HMYEDIDSAYRILEINSTVSNQEIKNAYRRMAKKYHPDKVAHLGVEHQKGAEEKFKKVQEAYILIKKRRG | -0.918 |
| HMYEENFSKIKNDISTIFKRHKISFTNNFISHLSSVFNTDSLTNKMELEKLDSFLINNKKVTENELLKFII | -0.0789 |
| HMYEINEIIRERRLKKGLTQAQVAKYLGVSAPAVNKWEKGTTYPDLVLLPALARLLDTDLTTLLSF | -1.46 |
| HMYEVVPNMRGLTYNQATAALAAAGLKVELSDSIYDEHTQPGTVLDQSPRPNTKVKPNRVVYLTVNAF | -1.1 |
| HMYFDDEELDTYKGRASNAYSPDETAQFEEVMTTMRPDEVAAWLRSLQLRGINLPDELKDEAIMLVE | -0.0968 |
| HMYFGNSLFQARKRSGLSQEGVAEKLGVSRQTVSKWETGETVPDIYQSKKMARLYGVSLDEL | 0.206 |
| HMYFNTADLKADSIHYGSTEQSVIKILGEPEYRETFVDNNVSYELFSYKGNLLLSFVENSLVSL | 0.147 |
| HMYGTERILAQLANYGIPNKLAFQIQDFYKEETLQIVEQQPYRLVEDIQGMGFKIADQLAEELGI | -0.307 |
| HMYIDLHEIWKSLTDEEQTVVKLLETEPAHVDTLIENSQIPASRILATLTLLEVRGIVKRLPGRMFSLAD | -3.61 |
| HMYIENIGDYLKSHDIKPSYQRIKVFEYLMQHKNHPTVDMIYKSLVDEIPTLSKTTVYNTLNLFIEKQI | -1.55 |
| HMYITGAVIRKLREKNNITQLQLAERLRVSDKTISKWETGKGYPDITLLEPIAKTFSVSVTELISGDI | -2.46 |
| HMYKNLRAFRESLGMTQKDFAASLSIGLSTYNGYEVGAREPKSDFWIAVARKYGVTIDYLMGFSDDPHK | -1.46 |
| HMYKSSRASKSEVNKFLKFIIQSLDKRGFLQPGHKRQSMIRNIENIFYRTNLSDQEIRILLGIFSTLNK | -0.9 |
| HMYLELVTKEGGSFDEPDYWGRRKLAYEIAGKTEGNYVVVKYTAEPATSDELDRVLNLNESVIRTKILRK | 0.00439 |
| HMYLHSEFSPVTGQELHMKYDDSSTEEDPVMLVEGKDIQGNDFVKKIHLNDVDPENATPAEMTALRVHL | 0.206 |
| HMYLLPVTSTELKGNYPNPFNPETTISFDLKDAERVNLSIYNLKGQLVRTLVNSDLPIGRHRLIWDGNDS | -0.622 |
| HMYLPGERMRIKITALGSNPKQGVGYLPDGMMVVVDEAATLVGRFVEIEFVKFLQTNSGRMMFAKVAT | -1.96 |

| Sequence | soluble fraction (log2) |
| --- | --- |
| HMYMKGKVKWFDSKKGYGFITSENGKEIFVHFSGIAAKGFKSLNEGQTVEFEVANGAKGEQAVNVTV | -1.23 |
| HMYMKTITEQFGERLKKIRTQKSLSQEQLSYLADIDRSYISDVERGARNISLENIYKLASALNIPPYLVLL | -0.341 |
| HMYMLYQQLADSLRDKIYEGTYTFGDKIPSERTLAATFGISHLTVRKALAILEEEGLLDRRQGNGTFVRV | -1.09 |
| HMYNIDSFMTKNYPTMERFTLSDVQKKYKTTFGLFVKQDELASMIEKTGRFNITSSKNVKYVNR | -1.88 |
| HMYNPAYDAEIKVILELARHGYWEEARERADELLKAAPDDTGVKRIQTWVRQQEQRMREQAIEDSIRA | -0.288 |
| HMYPEETVNKILDVSMQLFLEKGYEHTSIQDIVNHLGGLSKGAIYHHFKSKEDILDGVMNKLYQNN | -1.58 |
| HMYPGQILEIYLDEIKRLYLNGLSSADIFAEIKEGSIPSVKKAIRSMKDGSAPVKITEAEESTRIAPS | -0.543 |
| HMYPTPAAANRHFLDKWGHQEAYLGKVLNSRSRASEILNGKRPLSLSDLRTLRDNLGIPVDLLL | -0.648 |
| HMYQKERDKEISEIETFLKKITNANGTRAYSDESIADMSYVELLNLYEGITSKLTEEEIENI | 0.0659 |
| HMYQPLYEQIKRMLTQSLIDGEWKAGEMIPSEMELAARFKVSQGTVRKAIDELVSENILMRRQGKGTFVH | -0.962 |
| HMYSDDNKSILNLIDNLFNKENIKIDINAKKLLSNYLGVDRLVTKGEIEKAILFAGTKKHLSIEDISAFLS | -0.104 |
| HMYSFPHQLLKLRTEKQLSQAELATRLFVSRQAVSKWENGDAEPSIDKLILLAKVFNVSLDRLILGT | -4.31 |
| HMYSIDNPPDWLKNLPKGAIRIGVEVFNQVLSKADDEDRARMAAWSAIKAKYEKADDGQWQPKAA | 0.0816 |
| HMYSNDEIVNYLKNYIFDNFNLNELSDEELEEKIAELVQQQFAGQLLSLDEKVKLVNQVYSSIR | -0.0578 |
| HMYSRQRDLILKALRENVVHPTADFIYTVLKEKEPNLSLATVYRNLNLLANEGIIRKIEGLDGVAHFDH | -1.85 |
| HMYSVVGKKGIVIEDINYSTGTGQIKSEGEVWSAKTNEQINIPKGTEIEIESIDGVKVIVKPL | 0.109 |
| HMYTDGVPALTDLKKESKPGRRQYVGVEDIPKVLGGLGITILSTSKGLMSGHQAKKKNIGGELIASV | 0.102 |
| HMYTEIDDVKDLLSKIPSVNKLTTADRGMVQAARNAYDALDEDQKLYITIADVEKFNAAVEWMEEH | -0.186 |
| HMYTVRDGDTVFGILNRFGVSLDELLSLNPELSNGLKAGMVLKIK | -0.542 |
| HMYVADVVGMGIKDALYILENQGLRVVFTGKGVVKNQSIAVGEKIIKGEKIVLML | -1.88 |
| HMYVQDPVDRLVLESALRLLREQEREIIFLHLVAGLKHREIAGLLHLPLSTVLSGYRRALTKMKSYLEE | -0.0135 |
| HMYVTGETIRHLRTQRRMTQEQLAETLGVTGKAVSKWETGRGFPDMSLLEPLARALRISVPELLSGE | -1.07 |
| HMYYNQGILKSGASVYGEPGITSSHRLEIPSGSFVDIVQEKDEWVYYEKNHVNHGWVLRENIYIPSL | 0.149 |
| HMYYQEDHDIILEETEDVTDPYLITLRGYIFLNNLQWVAARQAFLSADERFRHRHYSALIAPIMQTIDNAA | 0.359 |
| HMYYSERILTILEERGISPYRVSKETGISQSVFSNWKRKPTSRITAANLERLADYLGLPVEVLTG | -3.48 |

From the domain aggregation screens of Martell et al. (2025)
